Reference: patent US20260028405A1 (ICAHN SCHOOL OF MEDICINE AT MOUNT SINAI, published 2026)
Blank lines part the entries; values can stand above or below the binder they belong to.

B2: biotinylated human CD64 protein (receptor, UniProt P12314 16-288, looked up)
chain: QVDTTKAVITLQPPWVSVFQEETVTLHCEVLHLPGSSSTQWFLNGTATQTSTPSYRITSASVNDSGEYRCQRGLSGRSDPIQLEIHRGWLLLQVSSRVFTEGEPLALRCHAWKDKLVYNVLYYRNGKAFKFFHWNSNLTILKTNISHNGTYHCSGMGKHRYTSAGISVTVKELFPAPVLNASVTSPLLEGNLVTLSCETKLLLQRPGLQLYFSFYMGSKTLRGRNTSSEYQILTARREDSGLYWCEAATEDGNVLKRSPELELQVLGLQLPTP
modifications: biotinylated
notes: also called human Fc receptor CD64

Assays:
human CD16a protein [1] = target: T1, human CD16a protein (human, UniProt P08637 17-208, biotinylated in the bead assay (FIG. 4B, 4C)); experiment: ELISA on human CD16a
T1 construct: construct not described; also called biotinylated CD16a; FcγRIIIa

[2] = target: B2; experiment: ELISA, immobilised antibody detected with biotinylated human CD64
Description: (§1) FIGS. 7A, 7B, and 7C illustrate the properties of chF9H4-DANA, a chimeric antibody in which the variable and the CH1 region of F9H4 is fused to the CH2 and CH3 regions of hIgG1 comprising a D265A N297A (DANA) mutation (labeled as “F9H4-hIG1-DANA” in FIGS. 7A, 7B, and 7C). FIG. 7A. The indicated antibodies were immobilized in ELISA plates and detected by biotinylated human CD64 protein, which was added in the indicated concentrations. Highest absorbance for hIgG wild type. FIG. 7B. ELISA for reactivity of antibodies against human CD16a. Highest absorbance for F9H4-hIG1-DANA. FIG. 7C. Inhibition of CD16a shedding assay with primary NK cells that were treated with 30 ng/mL PMA to induce CD16a shedding. Highest absorbance for F9H4-hIG1-DANA. Data represent three independent experiments (FIGS. 7A, 7B, and 7C) and mean+/−SD of triplicates even though the SD bars are so small that cannot be seen (FIG. 7C).

hIgG wild type = target: T2, hIgG wild type; experiment: as above
T2 construct: it may be the same as hIgG1
Description: as §1

[3] = target: human CD16a on cells (primary NK cells; engineered reporter cells) (human, UniProt P08637 17-254); experiment: cell-based or functional assay
human CD16a protein [4] = target: T1, human CD16a protein; experiment: ELISA on human CD16a protein
[5] = target: T3, recombinant CD16a D2 domain (UniProt P08637 107-208, limits assumed); experiment: ELISA, immobilised CD16a D2 domain [panel D2]
T3 construct: domain: D2
Description: FIGS. 4A, 4B, 4C, 4D, 4E, and 4F illustrate the characterization of F9H4. FIG. 4A. An ELISA was performed with immobilized F9H4 or the positive controls, respectively. For detection, biotinylated antibodies against the indicated subclasses of murine IgG were used. From left to right: Anti-mIgG1, anti-mIgG2a, anti-mIgG2b, anti-mIgG3. FIG. 4B. Validation of a bead assay to assess CD16a binding to hIgG1. […] Two left peaks (overlapping): uncoated and DANA mutant. Right peak: hIgG1. FIG. 4C. Bead assay for CD16a binding to hIgG1. hIgG1-coated beads were incubated with 1 μg/mL biotinylated CD16a plus the indicated antibodies, followed by incubation with PE-labelled streptavidin and analysis by flow cytometry. Peaks from left to right: 30, 10, 3, and 1 μg/mL. FIG. 4D. Jukart cells were engineered to express human CD16a and luciferase in response to CD16a engagement. Cells were treated overnight with the indicated antibodies, followed by addition of luciferin and analyses in plate reader. […] Data represent two (FIG. 4D) or three (FIGS. 4A, 4B, 4C, and 4F) independent experiments, are mean+/−SE of quadruplicates (FIG. 4 D), and were analyzed by non-linear regression (FIGS. 4D and 4F).
To shed light into the mechanism by which F9H4 inhibit the cleavage, the two immunoglobulin-like domains, D1 and D2 of CD16a were examined. […] It was determined by ELISA that F9H4 binds full length CD16a and D1, but not D2. […]

T1 sequence (P08637 17-208 limits assumed): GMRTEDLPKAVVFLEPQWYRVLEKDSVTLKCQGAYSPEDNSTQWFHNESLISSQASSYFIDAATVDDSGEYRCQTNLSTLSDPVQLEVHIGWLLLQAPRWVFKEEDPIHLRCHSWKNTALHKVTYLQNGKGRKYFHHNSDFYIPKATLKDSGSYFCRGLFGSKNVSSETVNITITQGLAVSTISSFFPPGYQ
T3 sequence (P08637 107-208 limits assumed): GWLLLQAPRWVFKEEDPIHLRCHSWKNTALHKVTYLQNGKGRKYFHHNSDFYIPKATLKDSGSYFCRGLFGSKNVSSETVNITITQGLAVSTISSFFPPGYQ
human CD16a on cells (primary NK cells; engineered reporter cells), sequence (P08637 17-254, change not shown): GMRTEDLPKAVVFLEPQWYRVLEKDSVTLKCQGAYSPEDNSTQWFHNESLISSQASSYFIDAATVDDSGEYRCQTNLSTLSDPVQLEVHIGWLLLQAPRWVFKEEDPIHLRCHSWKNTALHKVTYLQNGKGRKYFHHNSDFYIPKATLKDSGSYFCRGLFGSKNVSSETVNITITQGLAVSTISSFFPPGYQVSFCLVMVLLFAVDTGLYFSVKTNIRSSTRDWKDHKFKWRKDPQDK

- EC50 (read off the curve) (human CD16a protein [1]): ~0.04 µg/mL
- binding result [2]: no binding (tested: 1 µg/mL)
B1: chF9H4-DANA, chimeric F9H4 with hIgG1 CH2-CH3 carrying D265A N297A (antibody)
heavy: QVQLQQPGSELVRPGASVKLSCKASGYTFTSYWMHWVKQRHGQGLEWIGNIYPGSGSTNYDEKFKSKGTLTVDTSSSTAYMHLGSLTSEDSAVYYCTMRYGGYYGYYFDYWGQGTTLTVSSAKTTAPSVYPLAPVCGDTTGSSVTLGCLVKGYFPEPVTLTWNSGSLSSGVHTFPAVLQSDLYTLSSSVTVTSSTWPSQSITCNVAHPASSTKVDKKIEPRGPTIKPCPPCKCPAPELLGGPSVFLFPPKPKDTLMISRTPEVTCVVVAVSHEDPEVKFNWYVDGVEVHNAKTKPREEQYASTYRVVSVLTVLHQDWLNGKEYKCKVSNKALPAPIEKTISKAKGQPREPQVYTLPPSRDELTKNQVSLTCLVKGFYPSDIAVEWESNGQPENNYKTTPPVLDSDGSFFLYSKLTVDKSRWQQGNVFSCSVMHEALHNHYTQKSLSLSPGK
light: EIVLTQSPTTMAASPGEKITITCSTTSSISSNYLHWYQQKPGFSPKLLIYRTSNLASGVPARFSGSGSGTSYSLTIGTMEAEDVATYYCQQGSSIPLTFGAGTKLELKRADAAPTVSIFPPSSEQLTSGGASVVCFLNNFYPKDINVKWKIDGSERQNGVLNSWTDQDSKDSTYSMSSTLTLTKDEYERHNSYTCEATHKTSTSPIVKSFNRNEC
notes: also called chF8H4-DANA; F9H4-hIG1-DANA; copies: 2 + 2

Binder: B2
- EC50 (read off the curve) (hIgG wild type): ~6 ng/mL

- EC50 (read off the curve), luciferase reporter of CD16a engagement (RLU) [3]: ~0.1 µg/mL
B3: anti-CD16a antibody 3G8 (antibody)
chain 1: QVTLKESGPGILQPSQTLSLTCSFSGFSLRTSGMGVGWIRQPSGKGLEWLAHIWWDDDKRYNPALKSRLTISKDTSSNQVFLKIASVDTADTATYYCAQINPAWFAYWGQGTLVTVS
chain 2: DIVLTQSPASLAVSLGQRATISCKASQSVDFDGDSFMNWYQQKPGQPPKLLIYTTSNLESGIPARFSASGSGTDFTLNIHPVEEEDTATYYCQQSNEDPYTFGGGTKLELK

- EC50 (read off the curve) (human CD16a protein [4]): ~1 ng/mL
- binding result [5]: no binding (tested: 10 µg/mL)
B4: anti-CD16a antibody F9H4 (antibody, V domains shown)
VH: QVQLQQPGSELVRPGASVKLSCKASGYTFTSYWMHWVKQRHGQGLEWIGNIYPGSGSTNYDEKFKSKGTLTVDTSSSTAYMHLGSLTSEDSAVYYCTMRYGGYYGYYFDYWGQGTTLTVSS
VL: EIVLTQSPTTMAASPGEKITITCSTTSSISSNYLHWYQQKPGFSPKLLIYRTSNLASGVPARFSGSGSGTSYSLTIGTMEAEDVATYYCQQGSSIPLTFGAGTKLELKR
notes: also called F9H14
